B1: MAb3: murine N-terminal anti-hPG monoclonal antibody, hybridoma 6B5B11C10, VH SEQ ID NO:12, VL SEQ ID NO:13 (antibody, V domains shown)
VH: EVQLQQSGTVLARPGASVKMSCKASGYIFTSYWVHWVKQRPGQGLEWIGGFYPGNSDSRYNQKFKGKATLTAVTSASTAYMDLSSLTNEDSAVYFCTRRDSPQYWGQGTTLTVSS
VL: DVLMTQTPLSLPVSLGDQASISCRSSQSIVHSNGNTYLEWYLQKPGQSPKLLIYKVSNRFSGVPDRFSGSGSGTDFTLKISRLEAEDLGVYYCFQGSHVPFTFGGGTKLEIK
B2: MAb8: murine C-terminal anti-hPG monoclonal antibody, hybridoma 1C10D3B9, VH SEQ ID NO:59, VL SEQ ID NO:63 (antibody, V domains shown)
VH: EVQLVESGGGLVKPGGSLKLSCAASGFTFTTYAMSWVRQTPEKRLEWVATISSGGTYTYYPDSVKGRFTISRDNAKNALYLQMSSLRSEDTAMYYCATQGNYSLDFWGQGTSLTVSS
VL: DIVMTQAASSNPVTLGTSASISCRSSKSLRHTKGITFLYWYLQKPGQSPQLLIYQMSNLASGVPDRFSSSGSGTDFTLRISRVEAEDLGVYYCAQNLELPLTFGAGTKLELK
B3: MAb19: murine N-terminal anti-hPG monoclonal antibody, hybridoma 1B3B4F11, VH SEQ ID NO:62, VL SEQ ID NO:66 (antibody, V domains shown)
VH: DVQLQESGPGLVKPSQSLSLTCTVTGYSITSDYAWNWIRQFPGNKLEWMGYISFSGYTSYNPSLKSRISVTRDTSRNQFFLQLTSVTTEDTATYYCAREVNYGDSYHFDYWGQGTIVTVSS
VL: QLALTQSSSASFSLGASAKLTCTLSSQHRTYTIEWYQQQSLKPPKYVMEVKKDGSHSTGHGIPDRFSGSSSGADRYLSISNIQPEDEAIYICGVGDAIKGQSVFVFGGGTKVTVL

Legend:
Format in all cases: cell-based
[1] = system: side population cells of Huh7 cells; experiment: Spheroid formation of Huh7 side population cells under low adherence culture conditions; details: 5 nM doxorubicin, 9 days; FIG. 9
Description: The dye excluding side population cells of Huh7 cells were isolated as described in Example 8. Side population cells were then seeded into ultra low adherence 96-well plates (200 cells/well) in M11 medium, and grown for 9 days at 37° C. in the presence of control or anti-progastrin polyclonal antibodies (1 μg/ml), 5 nM doxorubicin (a chemotherapeutic agent used in certain liver cancer therapy), or DMSO (vehicle for doxorubicin) (15 wells per condition). The composition of M11 medium was as follows: DMEM/F12-Glutamax (Catalog #31331 Invitrogen); 20 ng/ml EGF (R&D systems); 10 ng/ml FGF (R&D systems); 20 microg/ml Insulin (Sigma); 1/100 dilution of N2 supplement (Catalog #P1510, Gibco); 2 μg/ml ciprofloxacin, 5 μg/ml gentamycin and 3 μg/ml glucose. At the end of the experiment, photomicrographs were taken, and the number of spheres per well counted and the mean and standard deviation calculated.
The dye excluding side population cells of Huh7 cells were isolated as described in Example 8. […] At the end of the experiment, photomicrographs were taken, and the number of spheres per well counted and the mean and standard deviation calculated.

[2] = system: liver cancer cells; experiment: Neutralizing activity with liver cancer cells; details: tests with liver cancer cells
Description: A specific test for assessing whether a particular anti-hPG antibody is neutralizing can be performed as follows. Huh7 hepatocellular carcinoma cells are seeded in ultra low-adherence 24-well plates (500 cells/well) in serum-free M11 medium. Cells are grown at 37° C. and treated twice daily for 7 days with the test anti-hPG antibody or a control, non-specific monoclonal antibody, at antibody concentrations of about 5 μg/mL. At the end of the experiment, photomicrographs are taken, and the number of spheres per well is counted and the median and percentile distribution calculated.

[3] = system: Huh7 hepatocellular carcinoma cells; experiment: Spheroid formation of Huh7 cells after antibody pre-treatment under regular adherence; details: pre-treatment with 10 μg/mL, then 5 days without treatment, vs control MAb; FIG. 13A-B
Description: In one experiment, 75,000 Huh7 hepatocellular carcinoma cells/well were first seeded into 6-well plates in MEMα with 10% FCS, serum starved overnight and grown for 60 hours in MEMα+0.5% Pannexin H in the presence of 10 μg/mL anti-progastrin monoclonal antibody MAb8 or control monoclonal antibody (P3X63Ag8, ATCC, Ref TIB-9). At the end of treatment, for each treatment group, 500 cells/well were plated into eight wells of ultra low-adherence 24-well plates in 500 μl of serum-free M11 medium containing bFGF and EGF, and grown for a further 5 days without treatment. At the end of this period, photographs were taken, the number of spheres per well was counted, and sphere surface was measured. […] Thereafter, an operator who was blinded to the identity of all wells counted the spheroids.
In a second experiment, 75,000 Huh7 hepatocellular carcinoma cells/well were first seeded into 6-well plates in MEMα with 10% FCS, serum starved overnight and grown for 60 hours in MEMα+0.5% Pannexin H in the presence of 10 μg/mL anti-progastrin monoclonal antibody MAb16 or a control monoclonal antibody (P3X63Ag8, ATCC, Ref TIB-9). […] At the end of this period, photographs were taken, the number of spheres per well was counted, and sphere surface was measured. […] Thereafter, an operator who was blinded to the identity of all wells counted the spheroids.

[4] = system: PLC/PRL/5 hepatocellular carcinoma cells; experiment: Spheroid formation of PLC/PRL/5 cells under low adherence culture conditions; details: vs control MAb
Description: PLC/PRL/5 hepatocellular carcinoma cells were seeded in ultra low-adherence 24-well plates (220 cells/well) in serum-free M11 medium (DMEM/F12 with 20 ng/ml EGF, 10 ng/ml FGF, 20 μg/ml insulin, N2 supplement, 2 μg/ml ciprofloxacin, 5 μg/ml gentamycin and 3 μg/ml glucose). Cells were grown for 10 days at 37° C., with the daily addition of control or anti-hPG MAb3 monoclonal antibodies (1 μg/ml). At the end of the experiment, photomicrographs were taken, and the number of spheres per well counted and the mean and standard deviation calculated. In one experiment, PLC/PRL/5 hepatocellular carcinoma cells were seeded in ultra low-adherence 96-well plates (35 cells/well) in serum-free M11 medium (DMEM/F12 with 20 ng/ml EGF, 10 ng/ml FGF, 20 μg/ml insulin, N2 supplement, 2 μg/ml ciprofloxacin, 5 μg/ml gentamycin, and 3 μg/ml glucose). […] At the end of the experiment, photomicrographs were taken, and the number of spheres per well counted and the median and percentile distribution calculated. […] At the end of the experiment, photomicrographs were taken, and the number of spheres per well counted and the median and percentile distribution calculated. […] At the end of the experiment, photomicrographs were taken, and the number of spheres per well counted and the median and percentile distribution calculated.

| Molecule | Number of spheroids formed [1] | Neutralizing activity [2] | Ability to grow as spheroids [3] | Number of spheroids formed ([4]; 6 μg/ml twice daily, 7 days, FIG. 15C) | Number of spheroids formed ([4]; 3 μg/ml twice daily, 8 days, FIG. 15A) |
| --- | --- | --- | --- | --- | --- |
| COc1cccc2c1C(=O)c1c(O)c3c(c(O)c1C2=O)C[C@@](O)(C(=O)CO)C[C@@H]3O[C@H]1C[C@H](N)[C@H](O)[C@H](C)O1 [Doxorubicin, doxorubicin] | reduce the number of spheroids | – | – | – | – |
| B1 | – | exhibited neutralizing activity | – | – | – |
| B2 | – | exhibited neutralizing activity | significantly reduced | significantly reduced | – |
| B3 | – | exhibited neutralizing activity | – | – | significantly reduced |

Reference: patent US10533050B2, “Methods and compositions for liver cancer therapy” (Institut National de la Sante et de la Recherche Medicale …, priority 2010, dated 2020)
